In article PMC9621272:

What was measured:
Trypsin [1] = biological target: Trypsin (UniProt P00760)
Trypsin [2] = biological target: Trypsin (UniProt P00760); remark: listed apart in the source

Chain of UniProt P00760 (P00760 18-246): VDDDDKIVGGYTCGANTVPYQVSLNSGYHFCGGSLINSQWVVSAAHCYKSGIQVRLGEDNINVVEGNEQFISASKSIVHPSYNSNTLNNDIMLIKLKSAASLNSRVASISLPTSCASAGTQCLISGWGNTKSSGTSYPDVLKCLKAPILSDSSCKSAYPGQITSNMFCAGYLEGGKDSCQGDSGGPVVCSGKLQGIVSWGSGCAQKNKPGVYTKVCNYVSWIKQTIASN

Substance “trypsin inhibitor isolated from tamarind seeds (natural protein)” has an antitrypsin activity (%) of the eluate from Trypsin-Sepharose (Trypsin [1]) of 97%, an antitrypsin activity (%), substrate BApNa 1.25 mM, TTI 0.7 mg/mL after the gastric phase of simulated digestion (TTI remained intact) (Trypsin [2]) of 96.6% and an antitrypsin activity (%), substrate BApNa 1.25 mM, TTI intact 0.7 mg/mL, no digestion (Trypsin [2]) of 96.3%.
